Results on two molecules are retold here after PMC4847171, “Structural model of FeoB, the iron transporter from Pseudomonas aeruginosa, predicts a cysteine lined, GTP-gated pore” (Bioscience Reports, 2016).

Several values for one entry are separate records, joined by “and”; a condition that tells them apart may be missing. Equal values may be shown once.

The term stoichiometry N denotes a count of units in the complex or per binding partner.

The target in data set [1] is FeoB from Pseudomonas aeruginosa, histidine-tagged (Pseudomonas aeruginosa). The experiment in a line: native gel or EMSA; blue-native PAGE (NativePAGE Novex Bis-Tris 4%-12% gel, Coomassie blue G-250, 140 V for 2 h); purified FeoB solubilised with the polymer NV10. A general note: A gel shift assay detects complexes by their altered migration in electrophoresis.
For data set [2] the target is unchanged. Nature of the data set: AFM; AFM imaging in air of isolated FeoB diluted 10000-20000 times in 10 mM K-HEPES pH 7.0, 200 mM NaCl, 10 mM MgSO4, 0.05% C12E8, adsorbed on mica and dried; oligomeric state from molecular volumes.
Data set [3] deals with the molecule itself. Nature of the data set: native gel or EMSA; blue-native PAGE, same gel as FeoB; comparison proteins MexB and BSA.

Regarding “FeoB from Pseudomonas aeruginosa, histidine-tagged (natural protein)”, the stoichiometry N in data set [1] is 3 and 6; in data set [2] it was 3 and 6.

B1: MexB, drug efflux transporter from Pseudomonas aeruginosa (natural protein)
chain: MSKFFIDRPIFAWVIALVIMLAGGLSILSLPVNQYPAIAPPAIAVQVSYPGASAETVQDTVVQVIEQQMNGIDNLRYISSESNSDGSMTITVTFEQGTDPDIAQVQVQNKLQLATPLLPQEVQRQGIRVTKAVKNFLMVVGVVSTDGSMTKEDLSNYIVSNIQDPLSRTKGVGDFQVFGSQYSMRIWLDPAKLNSYQLTPGDVSSAIQAQNVQISSGQLGGLPAVKGQQLNATIIGKTRLQTAEQFENILLKVNPDGSQVRLKDVADVGLGGQDYSINAQFNGSPASGIAIKLATGANALDTAKAIRQTIANLEPFMPQGMKVVYPYDTTPVVSASIHEVVKTLGEAILLVFLVMYLFLQNFRATLIPTIAVPVVLLGTFGVLAAFGFSINTLTMFGMVLAIGLLVDDAIVVVENVERVMAEEGLSPREAARKSMGQIQGALVGIAMVLSAVFLPMAFFGGSTGVIYRQFSITIVSAMALSVIVALILTPALCATMLKPIEKGDHGEHKGGFFGWFNRMFLSTTHGYERGVASILKHRAPYLLIYVVIVAGMIWMFTRIPTAFLPDEDQGVLFAQVQTPPGSSAERTQVVVDSMREYLLEKESSSVSSVFTVTGFNFAGRGQSSGMAFIMLKPWEERPGGENSVFELAKRAQMHFFSFKDAMVFAFAPPSVLELGNATGFDLFLQDQAGVGHEVLLQARNKFLMLAAQNPALQRVRPNGMSDEPQYKLEIDDEKASALGVSLADINSTVSIAWGSSYVNDFIDRGRVKRVYLQGRPDARMNPDDLSKWYVRNDKGEMVPFNAFATGKWEYGSPKLERYNGVPAMEILGEPAPGLSSGDAMAAVEEIVKQLPKGVGYSWTGLSYEERLSGSQAPALYALSLLVVFLCLAALYESWSIPFSVMLVVPLGVIGALLATSMRGLSNDVFFQVGLLTTIGLSAKNAILIVEFAKELHEQGKGIVEAAIEACRMRLRPIVMTSLAFILGVVPLAISTGAGSGSQHAIGTGVIGGMVTATVLAIFWVPLFYVAVSTLFKDEASKQQASVEKGQ
For the molecule B1, the “stoichiometry N” value in data set [3] is 2 and 3.
